Target: the molecule itself
Experiment: co-sedimentation; in vitro assembly of FimA monomers to pilus rods: 50 μM FimA monomer in 20 mM acetic acid-NaOH pH 5.0, 150 mM NaCl, 7 days; rods pelleted at 186'000 x g, 10 min, 4°C

B1: Mature FimA without its natural signal sequence (159 residues), refolded FimA monomer (natural protein)
chain: AATTVNGGTVHFKGEVVNAACAVDAGSVDQTVQLGQVRTASLAQEGATSSAVGFNIQLNDCDTNVASKAAVAFLGTAIDAGHTNVLALQSSAAGSATNVGVQILDRTGAALTLDGATFSSETTLNNGTNTIPFQARYFATGAATPGAANADATFKVQYQ
notes: the N-terminal methionine added for cytoplasmic expression was cleaved off quantitatively (measured 15826.0 Da). numbers count on: the mature protein; also called pili assembled in vitro
- binding result: binds

From publication PMC5719983, “The Cryoelectron Microscopy Structure of the Type 1 Chaperone-Usher Pilus Rod” (Structure(London, England:1993), 2017)
